Sequences and labels used below:
B1: FAM189A2 (parent)
chain: GSEAAVIPLDLGCTQVTQDGDIPN
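Also: lentivirally expressed fusions sorted by FACS into six bins by GFP to DsRed ratio, PSI derived from sequencing read proportions per bin multiplied by bin number.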

The data set covers variants of B1. Kind of data set: protein stability index of a GFP-peptide fusion (GPS, HEK-293T) (PSI 1-6); higher = more stable. To be noted: c terminus: a fixed tail appended.
With GSEAAVIPLDLGCTQVDQDGDIPN [T17D], the protein stability index was 5.46.
The result for GSEAAVIMLDLGCTQVTQDGDIPN [P8M] reads 3.41; that for GSEAAVIKLDLGCTQVTQDGDIPN [P8K], 5.
As for GSEAAVIFLDLGCTQVTQDGDIPN [P8F], the protein stability index amounted to 2.34.
The result for GSEAAVIRLDLGCTQVTQDGDIPN [P8R] reads 4.53; that for GSEAAVIHLDLGCTQVTQDGDIPN [P8H], 4.74; that for GSEAAVITLDLGCTQVTQDGDIPN [P8T], 4.42.
The figure for GSEAAVINLDLGCTQVTQDGDIPN [P8N] is 5.16.
The figure for GSEAAVIVLDLGCTQVTQDGDIPN [P8V] is 2.54.
Consider GSEAAVIELDLGCTQVTQDGDIPN [P8E], for which the protein stability index turned out to be 4.85.
The figure for GSEAAVIWLDLGCTQVTQDGDIPN [P8W] is 2; for GSEAAVIYLDLGCTQVTQDGDIPN [P8Y] it is 2.83; for GSEAAVILLDLGCTQVTQDGDIPN [P8L] it is 2.65.
Turning to GSEAAVISLDLGCTQVTQDGDIPN [P8S], the protein stability index was found to be 4.46.
The result for GSEAAVIGLDLGCTQVTQDGDIPN [P8G] reads 5.18; that for GSEAAVIQLDLGCTQVTQDGDIPN [P8Q], 4.22.
The result for GSEAAVIILDLGCTQVTQDGDIPN [P8I] reads 1.87; that for GSEAAVIPLDQGCTQVTQDGDIPN [L11Q], 5.33; that for GSEAAVIPLDDGCTQVTQDGDIPN [L11D], 5.77.
The result for GSEAAVIPLDFGCTQVTQDGDIPN [L11F] reads 5.39; that for GSEAAVIPLDNGCTQVTQDGDIPN [L11N], 5.24; that for GSEAAVIPLDWGCTQVTQDGDIPN [L11W], 5.38.
For GSEAAVIPLDAGCTQVTQDGDIPN [L11A], the protein stability index was 5.54.
The result for GSEAAVIPLDSGCTQVTQDGDIPN [L11S] reads 5.54.
The result for GSEAAVIPLDMGCTQVTQDGDIPN [L11M] reads 5.31; that for GSEAAVIPLDRGCTQVTQDGDIPN [L11R], 5.72; that for GSEAAVIPLDHGCTQVTQDGDIPN [L11H], 5.75.
The result for GSEAAVIPLDIGCTQVTQDGDIPN [L11I] reads 5.11; that for GSEAAVIPLDPGCTQVTQDGDIPN [L11P], 5.45; that for GSEAAVIPLDKGCTQVTQDGDIPN [L11K], 5.6.
For the variant GSEAAVIPLDVGCTQVTQDGDIPN [L11V], the protein stability index amounted to 5.65.
The figure for GSEAAVIPLDCGCTQVTQDGDIPN [L11C] is 5.25; for GSEAAVIPLDGGCTQVTQDGDIPN [L11G] it is 5.6.
The figure for GSEAAVIPLDYGCTQVTQDGDIPN [L11Y] is 5.7; for GSEAAVIPLDTGCTQVTQDGDIPN [L11T] it is 5.44; for GSEAAVIPLDEGCTQVTQDGDIPN [L11E] it is 5.02.
On to GSEAAVIPLDLGCTQGTQDGDIPN [V16G], for which the protein stability index is 5.14.
As to GSEAAVIPLDLGCTQCTQDGDIPN [V16C], the protein stability index amounted to 5.31.
For the variant GSEAAVIPLDLGCTQATQDGDIPN [V16A], the protein stability index came out at 4.95.
The figure for GSEAAVIPLDLGCTQMTQDGDIPN [V16M] is 4.6; for GSEAAVIPLDLGCTQETQDGDIPN [V16E] it is 4.98; for GSEAAVIPLDLGCTQYTQDGDIPN [V16Y] it is 5.05.
With GSEAAVIPLDLGCTQITQDGDIPN [V16I], the protein stability index was 5.26.
The figure for GSEAAVIPLDLGCTQRTQDGDIPN [V16R] is 5; for GSEAAVIPLDLGCTQNTQDGDIPN [V16N] it is 5.62.
The figure for GSEAAVIPLDLGCTQKTQDGDIPN [V16K] is 5.09; for GSEAAVIPLDLGCTQQTQDGDIPN [V16Q] it is 4.61; for GSEAAVIPLDLGCTQSTQDGDIPN [V16S] it is 4.88.
The figure for GSEAAVIPLDLGCTQFTQDGDIPN [V16F] is 5.1; for GSEAAVIPLDLGCTQTTQDGDIPN [V16T] it is 5.53.
As to GSEAAVIPLDLGCTQPTQDGDIPN [V16P], the protein stability index was 5.52.
The figure for GSEAAVIPLDLGCTQHTQDGDIPN [V16H] is 5.22.
The result for GSEAAVIPLDLGCTQLTQDGDIPN [V16L] reads 5.06.
The result for GSEAAVIPLDLGCTQWTQDGDIPN [V16W] reads 4.67; that for GSEAAVIPLDLGCTQDTQDGDIPN [V16D], 5.66.
Take GSEAAVIPLDLGCTYVTQDGDIPN [Q15Y]: the protein stability index worked out at 4.5.
The figure for GSEAAVIPLDLGCTVVTQDGDIPN [Q15V] is 5.12; for GSEAAVIPLDLGCTNVTQDGDIPN [Q15N] it is 5.75; for GSEAAVIPLDLGCTDVTQDGDIPN [Q15D] it is 5.23.
The result for GSEAAVIPLDLGCTSVTQDGDIPN [Q15S] reads 5.4; that for GSEAAVIPLDLGCTFVTQDGDIPN [Q15F], 4.8.
The figure for GSEAAVIPLDLGCTRVTQDGDIPN [Q15R] is 4.17.
Turning to GSEAAVIPLDLGCTLVTQDGDIPN [Q15L], the protein stability index was 4.12.
The figure for GSEAAVIPLDLGCTEVTQDGDIPN [Q15E] is 5.77; for GSEAAVIPLDLGCTMVTQDGDIPN [Q15M] it is 5.27.
Consider GSEAAVIPLDLGCTKVTQDGDIPN [Q15K], for which the protein stability index is 5.16.
In the case of GSEAAVIPLDLGCTIVTQDGDIPN [Q15I], the protein stability index is 4.72.
The figure for GSEAAVIPLDLGCTPVTQDGDIPN [Q15P] is 5.33; for GSEAAVIPLDLGCTWVTQDGDIPN [Q15W] it is 4.11; for GSEAAVIPLDLGCTCVTQDGDIPN [Q15C] it is 5.31.
With GSEAAVIPLDLGCTGVTQDGDIPN [Q15G], the protein stability index was found to be 5.46.
The figure for GSEAAVIPLDLGCTAVTQDGDIPN [Q15A] is 5.45; for GSEAAVIPLDLGCTTVTQDGDIPN [Q15T] it is 5.24; for GSEAAVIPLDLGCTHVTQDGDIPN [Q15H] it is 5.51.
The figure for GSEAAVIPLDLRCTQVTQDGDIPN [G12R] is 4.87; for GSEAAVIPLDLMCTQVTQDGDIPN [G12M] it is 4.82.
For the variant GSEAAVIPLDLNCTQVTQDGDIPN [G12N], the protein stability index was 5.09.
The figure for GSEAAVIPLDLYCTQVTQDGDIPN [G12Y] is 5.05; for GSEAAVIPLDLQCTQVTQDGDIPN [G12Q] it is 5.44; for GSEAAVIPLDLDCTQVTQDGDIPN [G12D] it is 5.61.
The result for GSEAAVIPLDLTCTQVTQDGDIPN [G12T] reads 5.38.
For GSEAAVIPLDLFCTQVTQDGDIPN [G12F], the protein stability index is 4.76.
The result for GSEAAVIPLDLHCTQVTQDGDIPN [G12H] reads 4.87; that for GSEAAVIPLDLPCTQVTQDGDIPN [G12P], 5.52; that for GSEAAVIPLDLKCTQVTQDGDIPN [G12K], 5.2.
The figure for GSEAAVIPLDLWCTQVTQDGDIPN [G12W] is 4.62; for GSEAAVIPLDLACTQVTQDGDIPN [G12A] it is 5.5; for GSEAAVIPLDLSCTQVTQDGDIPN [G12S] it is 4.37.
Turning to GSEAAVIPLDLICTQVTQDGDIPN [G12I], the protein stability index was found to be 4.96.
Turning to GSEAAVIPLDLCCTQVTQDGDIPN [G12C], the protein stability index was 4.6.
Turning to GSEAAVIPLDLLCTQVTQDGDIPN [G12L], the protein stability index stood at 4.93.
The figure for GSEAAVIPLDLVCTQVTQDGDIPN [G12V] is 5.16.
For GSEAAVIPLDLECTQVTQDGDIPN [G12E], the protein stability index came to 4.86.
The figure for GSEAAVIPLDLGCTQVTADGDIPN [Q18A] is 5.46.

Source of the values: the supplement of paper PMC10567573.
